Experimental data published in the supplement of paper PMC9170038.

System: MS2 coat protein
Assay: apparent KD of MS2 coat protein; designed switch direction (-1 OFF switch, 1 ON switch): 1; higher = weaker reporter binding
Outline: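 Designed RNA switches sharing common flanks were transcribed on Illumina chips by stalled E. coli RNA polymerase. They were titrated with SNAP-549-labelled MS2 coat protein, from 0.7 or 1.5 nM doubling to 3 µM, in Tris-HCl pH 7.5 buffer with KCl, MgCl2, BSA, DTT, tRNA and Tween-20. Titrations ran without input, with 200 uM small-molecule ligand, or with an oligonucleotide input. The apparent KD of each design is the median over its clusters, after curve-fitting of normalised cluster fluorescence.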

[1] = Eterna round: R95, input ligand: FMN 200 uM
[2] = Eterna round: R95, input ligand: microRNA oligo, concentration not stated
[3] = Eterna round: R95, input ligand: none
[4] = input ligand: microRNA oligo, concentration not stated

Sequence | apparent KD of MS2 coat protein [1] [nM] | apparent KD of MS2 coat protein [2] [nM] | apparent KD of MS2 coat protein [3] [nM] | apparent KD of MS2 coat protein (input ligand: FMN 200 uM) [nM] | apparent KD of MS2 coat protein [4] [nM] | apparent KD of MS2 coat protein (input ligand: none) [nM]
GGUGAGAGAGUCAAGGAUAUGAAAGGAGAGACAUGAGGAUCACCCAUGUAAGAGAGAGAGGAGAGUUAGAAGGUGAAGAGAGUGG [Altered State 2-24 - Jieux - Same State 2] (puzzle: Same State 2) | 42.7 | 39.5 | 64.7 | – | – | –
GGACGUCAUCUCACUGAUUAAACAUGAGGAUCACCCAUGUCACAGGAUAUGAGUCCGAUUAGGACUCAGAAGGGUGUGACGUCC [Fiskers NG3ss - 45] (Eterna round: R96, puzzle: Same State NG 3) | – | – | – | 20.7 | 14.6 | 22.9
GGAGCCGGCCUAGGAUAUUUCAUUAAUAAACAUGAGGAUCACCCAUGUAGGCCAGAAGGCCUUGGGAAGAAGGAGGUCGGCUCC [Loop Effect - U24,U27] (Eterna round: R96, puzzle: Same State NG 2) | – | – | – | 21.2 | 24.5 | 37.7
CCAAAUUGAAUCCACAUGAGGAUCACCCAUGUCCAACCGGUCUAGGAUAUCACAGCAAGCGCGUGUGAGAAGGAGAAAACAAGC [Eternabot solution 34] (Eterna round: R96, puzzle: Same State NG 3) | – | – | – | 42.1 | 21 | 43.4
CCGUAGAUGGAAGGAUAUGGAGCCUUAUUGGCUCCAGAAGGUUCAAAACAUGAGGAUCACCCAUGUACGGCGGUCAAUAGACCG [Eli NG1ss - 82] (Eterna round: R96, puzzle: Same State NG 1) | – | – | – | 111 | 226 | 245
GUAGCAUACCGAGGAUAUUCAUAUUACAUGAGGAUCACCCAUGUUAUUUAGGCCAAAAGGCCUUGGGAGAAGGCGGAAUGCUAC [Xeonanis - 20 Mod8] (Eterna round: R96, puzzle: Same State NG 2) | – | – | – | 9.39 | 9.17 | 18.2
GUGGUCAGACAUGAGGAUCACCCAUGUGGAAUAAAUAAGGAGAAGGAUAUUGAAUAUAGGAUAUACAAGAAGGUCUGGUUGGUG (Eterna round: R96, puzzle: Same State NG 3) | – | – | – | – | 71.3 | –
AGAUCAUGACGAGGAUAUCCGACAUGAGGAUCACCCAUGUAUGUCGGAGGACGCGUACGUCCAAAGGAGAAGGCGUCGUGGUCA [JL SSNG2 1.02] (Eterna round: R96, puzzle: Same State NG 2) | – | – | – | 17.4 | 48.4 | 100
GUAGAUGUAGAGGAGGAUAUUCAAUGAGGAACAUGAGGAUCACCCAUGUAAGAGAGAGAUGAUGAGAAGAAGGCUUAGAGAGAUG [Altered State 2-2 - Jieux - Same State 2] (puzzle: Same State 2) | 32.3 | 31.3 | 46 | – | – | –
GGAGGACAUGAGGAUCACCCAUGUGGAUGAUCGCUAGGAUAUGCGUAAAGGAGGAGUGGUGCAGAAGGAGUGGGAU [JR_SS1_Sub050] (puzzle: Same State 1) | – | 261 | – | – | – | –
GUCCAAAACACAGGAUAUCCCGGUCAAAAUCCGGGAGAAGGGUGGCCACAUGAGGAUCACCCAUGUGACGUGCGAGAGGCACGA [Diessorire] (Eterna round: R96, puzzle: Same State NG 1) | – | – | – | 118 | 318 | 540
AAGCUCGUGUGAGGAUAUGCCGCCGUUUCGGCUGCAGAAGGUGCUACGUUACAUGAGGAUCACCCAUGUCUCUGUUGUUUCGUG [salish99_SSNG1_r04_953] (Eterna round: R96, puzzle: Same State NG 1) | – | – | – | – | 18.5 | –
GUCGGUCUGUCGUGCUGUGGUGAUAGUUAACAUGAGGAUCACCCAUGUUGCUUUCGGGUCGUUGGGAGUUUUUUUCG [Modxample 121 - Jieux - Sensor for bsa-mir-208a] (Eterna round: R96, puzzle: Sensor for hsa-mir-208a) | – | – | – | 63.1 | 43.9 | 64
ACAUGAAAUUGAGGAUAUUUUGUACCUACAUGUGACAUGAGGAUCACCCAUGUGGUAAGUAUAAGAAAGAAGGCAAAGAUAUGU [Equivalence 7 - Jieux - Same State NG 2] (Eterna round: R96, puzzle: Same State NG 2) | – | – | – | 25.6 | 30.8 | 64.9
AUUGCUUACGCAGGAUAUGAUGUGGAAACUGCGUCAGAAGGGUGAACAGUAUCGUUGCAAGAGGACAUGAGGAUCACCCAUGUC [SameState NG1 #98] (Eterna round: R96, puzzle: Same State NG 1) | – | – | – | 27.9 | 20.6 | 31.4
GUGGUCAGACAUGAGGAUCACCCAUGUGGAAUAAAUAACACACAGGAUAUGGAAUAUAAAAUAUACCAGAAGGGUGGAUUGGUG (Eterna round: R96, puzzle: Same State NG 3) | – | – | – | 157 | 226 | 326
GUAGCAUACCGAGGAUAUUCAUUACAUGAGGAUCACCCAUGUUUAAAUAAUAGGCGAAAGCCUUGGGAGAAGGCGGAAUGCUAC [Xeonanis - 20 Mod71] (Eterna round: R96, puzzle: Same State NG 2) | – | – | – | 10.9 | 10.1 | 14
UUAAUAAAUCAAGGAUAUCACGUCGUUUAGACGUGAGAAGGUGAUCAUAACAUGAGGAUCACCCAUGUAUUACAUGAAUAUUAA [SSNG1/1-B3] (Eterna round: R96, puzzle: Same State NG 1) | – | – | – | 1180 | 778 | 1570
GACAAUCUAUCUGAGGAUAUCAUGAAUAAAACAUGAGGAUCACCCAUGUGCAGGAUAACUGCAAAUGAGAAGGCAGAUAGAUUGU [Mat - Same State 2 - Mod - D7] (puzzle: Same State 2) | 12.3 | 24 | 27.7 | – | – | –
CCAACGUACAAUUUAGAUCUACAUGAGGAUCACCCAUGUACGGAGGAUAUCAGCUCGAAUAGAGCUGAGAAGGCCGAAUUAAUU [SSNG3/2-A1] (Eterna round: R96, puzzle: Same State NG 3) | – | – | – | – | 248 | –
CUGAGCAAUCUAGGAUAUCACGUCGAAUAGACGUGAGAAGGAGAUCAUAACAUGAGGAUCACCCAUGUAUUACAUGAAGCUCAG [SSNG1/7-A1] (Eterna round: R96, puzzle: Same State NG 1) | – | – | – | 13.4 | 11.6 | 17.9
UUAACAUGAGGAUCACCCAUGUAUACGGAGUUUGCAAUUUGACAGGAUAUUGAAGAUCUAUAUAGCAAGAAGGGUCGUUAGUCU [JR_SSNG3_Sub006] (Eterna round: R96, puzzle: Same State NG 3) | – | – | – | 47.5 | 32.6 | 44.7
UUGCUCGUGUGAGGAUAUGCAGCCGUUUCGGCUGCAGAAGGUACUAUAAUACAUGAGGAUCACCCAUGUCUCUGUUGUUUGGUG [salish99_SSNG1_r04_930] (Eterna round: R96, puzzle: Same State NG 1) | – | – | – | 69.7 | 49.4 | 63.7
GUUUUUAGUGCAGGAUAUGAUCAACAUGAGGAUCACCCAUGUGGCGUUGUGAGUAGGGAGAGAGAUCAGAAGGGCGUCUCCGCG [SS-NG2-LRO13] (Eterna round: R96, puzzle: Same State NG 2) | – | – | – | 51.5 | 37 | 57.3
GUUACAUGAGGAUCACCCAUGUAUGUGUGGGAGUAAGUGUCUUAGGAUAUCUAUUAUUUAAUUUGAGAGAAGGAAGAUUGUUGU [JMF's solution 28] (Eterna round: R96, puzzle: Same State NG 3) | – | – | – | 107 | 97.7 | 107
AAAGCAAUGGUACAGGAUAUGUACGGUCGUACAUGAGGAUCACCCAUGUCGCUGGAAAGGUAGAUACAGAAGGGUGCCCAUGCGU [Riintile] (puzzle: Same State 2) | 34.4 | 161 | 210 | – | – | –
GGCCUCUGUCAAGGAUAUGCUACCGUUUCGGUAGCAGAAGGUGAUCACAUGAGGAUCACCCAUGUUUAGGCCCUCUGGCCCGCC (Eterna round: R96, puzzle: Same State NG 1) | – | – | – | 114 | 330 | 138
UCGUCCUCGUGCUAGGAUAUCCAUCGUAAAACAUGAGGAUCACCCAUGUAGAAAUGCGCCUACGAGGAGAAGGAGCGAUGUGGAU [Velemageer] (Eterna round: R96, puzzle: Same State 2) | – | – | – | – | 14 | –
